# T1: Recombinant human TRB3 (tribbles homolog 3) (human, UniProt Q96RU7 1-358)
# T1 construct: pseudokinase tribbles homolog 3 (TRB3), human, recombinant; as I recall, the catalogue suffix H09B stands for a His and GST tagged protein made in baculovirus-infected insect cells (surmise); also called TRB3 protein; human TRB3 protein; source: bought: Sino Biological (10731-H09B)
# T1 sequence (looked up): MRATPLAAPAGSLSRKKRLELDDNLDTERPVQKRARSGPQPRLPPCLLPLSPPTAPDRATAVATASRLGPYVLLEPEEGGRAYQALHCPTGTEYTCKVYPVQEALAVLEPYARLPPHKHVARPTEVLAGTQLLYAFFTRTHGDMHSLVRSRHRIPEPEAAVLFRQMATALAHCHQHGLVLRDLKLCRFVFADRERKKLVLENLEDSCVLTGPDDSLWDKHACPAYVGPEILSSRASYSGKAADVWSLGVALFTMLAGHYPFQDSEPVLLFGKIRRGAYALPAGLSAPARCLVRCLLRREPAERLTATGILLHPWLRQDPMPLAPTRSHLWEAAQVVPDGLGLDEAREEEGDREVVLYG
# B1: A2 peptide (TRB3-binding peptide fragment derived from p62) (peptide)
# peptide: GGWLTRLLQTK
# notes: also called non-self-assembling peptide A2; source: synthetic peptide (SPPS, purified by HPLC)
# Molecular target: T1, Recombinant human TRB3 (tribbles …)
# Test: MST; Monolith NT.115; Ac-GFFY-A2 or A2 against human TRB3 protein or BSA (negative control); which partner was labelled is not told
# Conditions: both partners purified
binder,measurement,value
B1,Kd,~3.21 µM

# — article PMC11267363, “Supramolecular Nanofibers Ameliorate Bleomycin‐Induced Pulmonary Fibrosis by Restoring Autophagy” (Advanced Science, 2024)
